Data: US20150344570A1 (published 2015)

T1: FcγRIIa H (human, UniProt P12318 34-217)
T1 construct: extracellular domain; also called FcgRIIa H; 2aH; not shown: His tag at the C terminus
T1 sequence (looked up): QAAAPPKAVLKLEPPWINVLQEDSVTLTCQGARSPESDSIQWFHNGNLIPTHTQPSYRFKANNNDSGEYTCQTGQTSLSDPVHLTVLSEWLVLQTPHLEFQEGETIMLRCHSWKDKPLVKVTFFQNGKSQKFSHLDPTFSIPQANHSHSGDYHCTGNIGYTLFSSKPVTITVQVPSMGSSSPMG

T2: FcγRIIb (human, UniProt P31994 43-217)
T2 construct: extracellular domain; also called FcgRIIb; 2b; not shown: His tag at the C terminus
T2 sequence (looked up): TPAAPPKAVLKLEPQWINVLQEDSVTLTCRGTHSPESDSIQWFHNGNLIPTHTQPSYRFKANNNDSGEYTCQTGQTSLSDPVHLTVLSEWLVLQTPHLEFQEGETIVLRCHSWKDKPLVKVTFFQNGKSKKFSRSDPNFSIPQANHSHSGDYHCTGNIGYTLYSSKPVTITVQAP

T3: FcγRIIa R (extracellular domain, His tag at the C terminus) (human, UniProt P12318 34-217)
T3 construct: extracellular domain; Soluble analyte in Biacore; also called FcgRIIa R type; 2aR
T3 sequence (looked up): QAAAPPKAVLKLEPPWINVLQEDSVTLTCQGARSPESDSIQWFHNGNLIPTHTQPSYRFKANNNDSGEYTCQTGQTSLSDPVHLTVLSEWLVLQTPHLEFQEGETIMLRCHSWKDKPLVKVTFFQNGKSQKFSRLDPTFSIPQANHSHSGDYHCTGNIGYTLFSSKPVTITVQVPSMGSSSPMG


Legend:
FcγRIIa H [1] = biological target: T1, FcγRIIa H; test: SPR (Biacore); He/Con_2aH divided by He/Con_2b (FcγRIIa H versus FcγRIIb)
Description: (§1) The heterodimerized antibodies He Abs in which one of the H chains was introduced with an alteration were assayed for their binding activities to each activating FcγR and inhibitory FcγR according to the method described in Example 4. […] The activating FcγRs in FIGS. 26, 27, 28, and 29 are FcγRIa, FcγRIIa (R), FcγRIIa (H), and FcγRIIIa, respectively.
(§2) Analysis of interaction between objective antibody and the FcγR was carried out using Biacore T100 (GE Healthcare). HBS-EP+ (GE Healthcare) was used as the running buffer, and the measurement temperature was set to 25° C. Chips produced by immobilizing the antigen peptide by the amine coupling method to a Series S Sencor Chip CM5 (GE Healthcare), or alternatively, chips produced by allowing preliminarily biotinylated antigen peptides to interact with and immobilize onto a Series S Sensor Chip SA (certified) (GE Healthcare) were used. Antibodies of interest were captured onto an antigen peptide-immobilized chip, and allowed to interact to each FcγR diluted with running buffer. To regenerate and repeatedly use the chip, the antibodies captured on the chip were washed off by reacting 10 mM glycine-HCl, pH 1.5.

FcγRIIb = biological target: T2, FcγRIIb; test: SPR (Biacore), FcγR passed over captured antibody; binding amount as % of control GpH7-A5/GpH7-B3/GpL16-k0 (=100)
Description: as §1, §2

FcγRIIa H [2] = biological target: T1, FcγRIIa H; test: as above
Description: as §1, §2

[3] = biological target: T3, FcγRIIa R (extracellular domain, His …); test: SPR (Biacore), relative binding, control GpH7-B3/GpL16-k0 = 100
Description: as §2

He_2aH/2b (IIaH/IIb) (FcγRIIa H [1]) | He/Con_2b (FcγRIIb) | He/Con_2aH (FcγRIIa H [2]) | Ho/Con_2aR [3] | Binder
1.31 ratio | 78.3 relative, control = 100 | 102 relative, control = 100 |  | GpH7-A5/GpH7-B3 variant S324_02A/GpL16-k0 (antibody, human IgG1, kappa, He Ab: mutation in the GpH7-B3 H chain only) heavy 1: not shown heavy 2: not shown light: DIVMTQSPLSLPVTPGEPASISCQASESLVHSNRNTYLHWYLQKPGQSPQLLIYKVSNRFSGVPDRFSGSGSGTDFTLKISRVEAEDVGVYYCSQNTHVPPTFGQGTKVEIERTVAAPSVFIFPPSDEQLKSGTASVVCLLNNFYPREAKVQWKVDNALQSGNSQESVTEQDSKDSTYSLSSTLTLSKADYEKHKVYACEVTHQGLSSPVTKSFNRGEC
 |  |  | 107 % of control | GpH7-B3 variant T335_15Y/GpL16-k0 (antibody, human IgG1, kappa, homodimerized; also called Ho Ab) heavy: not shown light: DIVMTQSPLSLPVTPGEPASISCQASESLVHSNRNTYLHWYLQKPGQSPQLLIYKVSNRFSGVPDRFSGSGSGTDFTLKISRVEAEDVGVYYCSQNTHVPPTFGQGTKVEIERTVAAPSVFIFPPSDEQLKSGTASVVCLLNNFYPREAKVQWKVDNALQSGNSQESVTEQDSKDSTYSLSSTLTLSKADYEKHKVYACEVTHQGLSSPVTKSFNRGEC
1.64 ratio | 53.9 relative, control = 100 | 88.1 relative, control = 100 |  | GpH7-A5/GpH7-B3 variant Y300_13S/GpL16-k0 (antibody, human IgG1, kappa, He Ab: mutation in the GpH7-B3 H chain only) heavy 1: not shown heavy 2: not shown light: DIVMTQSPLSLPVTPGEPASISCQASESLVHSNRNTYLHWYLQKPGQSPQLLIYKVSNRFSGVPDRFSGSGSGTDFTLKISRVEAEDVGVYYCSQNTHVPPTFGQGTKVEIERTVAAPSVFIFPPSDEQLKSGTASVVCLLNNFYPREAKVQWKVDNALQSGNSQESVTEQDSKDSTYSLSSTLTLSKADYEKHKVYACEVTHQGLSSPVTKSFNRGEC
 |  |  | 154 % of control | GpH7-B3 variant H268_10E/GpL16-k0 (antibody, human IgG1, kappa, homodimerized; also called Ho Ab) heavy: not shown light: DIVMTQSPLSLPVTPGEPASISCQASESLVHSNRNTYLHWYLQKPGQSPQLLIYKVSNRFSGVPDRFSGSGSGTDFTLKISRVEAEDVGVYYCSQNTHVPPTFGQGTKVEIERTVAAPSVFIFPPSDEQLKSGTASVVCLLNNFYPREAKVQWKVDNALQSGNSQESVTEQDSKDSTYSLSSTLTLSKADYEKHKVYACEVTHQGLSSPVTKSFNRGEC
 |  |  | 157 % of control | GpH7-B3 variant H268_09D/GpL16-k0 (antibody, human IgG1, kappa, homodimerized; also called Ho Ab) heavy: not shown light: DIVMTQSPLSLPVTPGEPASISCQASESLVHSNRNTYLHWYLQKPGQSPQLLIYKVSNRFSGVPDRFSGSGSGTDFTLKISRVEAEDVGVYYCSQNTHVPPTFGQGTKVEIERTVAAPSVFIFPPSDEQLKSGTASVVCLLNNFYPREAKVQWKVDNALQSGNSQESVTEQDSKDSTYSLSSTLTLSKADYEKHKVYACEVTHQGLSSPVTKSFNRGEC
1.34 ratio | 41.2 relative, control = 100 | 55.4 relative, control = 100 |  | GpH7-A5/GpH7-B3 variant Y300_12R/GpL16-k0 (antibody, human IgG1, kappa, He Ab: mutation in the GpH7-B3 H chain only) heavy 1: not shown heavy 2: not shown light: DIVMTQSPLSLPVTPGEPASISCQASESLVHSNRNTYLHWYLQKPGQSPQLLIYKVSNRFSGVPDRFSGSGSGTDFTLKISRVEAEDVGVYYCSQNTHVPPTFGQGTKVEIERTVAAPSVFIFPPSDEQLKSGTASVVCLLNNFYPREAKVQWKVDNALQSGNSQESVTEQDSKDSTYSLSSTLTLSKADYEKHKVYACEVTHQGLSSPVTKSFNRGEC
1.69 ratio | 55.6 relative, control = 100 | 94.1 relative, control = 100 |  | GpH7-A5/GpH7-B3 variant Y300_14T/GpL16-k0 (antibody, human IgG1, kappa, He Ab: mutation in the GpH7-B3 H chain only) heavy 1: not shown heavy 2: not shown light: DIVMTQSPLSLPVTPGEPASISCQASESLVHSNRNTYLHWYLQKPGQSPQLLIYKVSNRFSGVPDRFSGSGSGTDFTLKISRVEAEDVGVYYCSQNTHVPPTFGQGTKVEIERTVAAPSVFIFPPSDEQLKSGTASVVCLLNNFYPREAKVQWKVDNALQSGNSQESVTEQDSKDSTYSLSSTLTLSKADYEKHKVYACEVTHQGLSSPVTKSFNRGEC
1.53 ratio | 63.1 relative, control = 100 | 96.5 relative, control = 100 |  | GpH7-A5/GpH7-B3 variant S324_12R/GpL16-k0 (antibody, human IgG1, kappa, He Ab: mutation in the GpH7-B3 H chain only) heavy 1: not shown heavy 2: not shown light: DIVMTQSPLSLPVTPGEPASISCQASESLVHSNRNTYLHWYLQKPGQSPQLLIYKVSNRFSGVPDRFSGSGSGTDFTLKISRVEAEDVGVYYCSQNTHVPPTFGQGTKVEIERTVAAPSVFIFPPSDEQLKSGTASVVCLLNNFYPREAKVQWKVDNALQSGNSQESVTEQDSKDSTYSLSSTLTLSKADYEKHKVYACEVTHQGLSSPVTKSFNRGEC
1.44 ratio | 66.8 relative, control = 100 | 96 relative, control = 100 |  | GpH7-A5/GpH7-B3 variant S324_19Q/GpL16-k0 (antibody, human IgG1, kappa, He Ab: mutation in the GpH7-B3 H chain only) heavy 1: not shown heavy 2: not shown light: DIVMTQSPLSLPVTPGEPASISCQASESLVHSNRNTYLHWYLQKPGQSPQLLIYKVSNRFSGVPDRFSGSGSGTDFTLKISRVEAEDVGVYYCSQNTHVPPTFGQGTKVEIERTVAAPSVFIFPPSDEQLKSGTASVVCLLNNFYPREAKVQWKVDNALQSGNSQESVTEQDSKDSTYSLSSTLTLSKADYEKHKVYACEVTHQGLSSPVTKSFNRGEC
1.33 ratio | 77.4 relative, control = 100 | 103 relative, control = 100 |  | GpH7-A5/GpH7-B3 variant S324_10E/GpL16-k0 (antibody, human IgG1, kappa, He Ab: mutation in the GpH7-B3 H chain only) heavy 1: not shown heavy 2: not shown light: DIVMTQSPLSLPVTPGEPASISCQASESLVHSNRNTYLHWYLQKPGQSPQLLIYKVSNRFSGVPDRFSGSGSGTDFTLKISRVEAEDVGVYYCSQNTHVPPTFGQGTKVEIERTVAAPSVFIFPPSDEQLKSGTASVVCLLNNFYPREAKVQWKVDNALQSGNSQESVTEQDSKDSTYSLSSTLTLSKADYEKHKVYACEVTHQGLSSPVTKSFNRGEC
 |  |  | 107 % of control | GpH7-B3 variant G236_09D/GpL16-k0 (antibody, human IgG1, kappa, homodimerized; also called Ho Ab) heavy: not shown light: DIVMTQSPLSLPVTPGEPASISCQASESLVHSNRNTYLHWYLQKPGQSPQLLIYKVSNRFSGVPDRFSGSGSGTDFTLKISRVEAEDVGVYYCSQNTHVPPTFGQGTKVEIERTVAAPSVFIFPPSDEQLKSGTASVVCLLNNFYPREAKVQWKVDNALQSGNSQESVTEQDSKDSTYSLSSTLTLSKADYEKHKVYACEVTHQGLSSPVTKSFNRGEC
1.23 ratio | 85.8 relative, control = 100 | 106 relative, control = 100 |  | GpH7-A5/GpH7-B3 variant S324_09D/GpL16-k0 (antibody, human IgG1, kappa, He Ab: mutation in the GpH7-B3 H chain only) heavy 1: not shown heavy 2: not shown light: DIVMTQSPLSLPVTPGEPASISCQASESLVHSNRNTYLHWYLQKPGQSPQLLIYKVSNRFSGVPDRFSGSGSGTDFTLKISRVEAEDVGVYYCSQNTHVPPTFGQGTKVEIERTVAAPSVFIFPPSDEQLKSGTASVVCLLNNFYPREAKVQWKVDNALQSGNSQESVTEQDSKDSTYSLSSTLTLSKADYEKHKVYACEVTHQGLSSPVTKSFNRGEC
1.21 ratio | 81.1 relative, control = 100 | 97.8 relative, control = 100 |  | GpH7-A5/GpH7-B3 variant S324_18N/GpL16-k0 (antibody, human IgG1, kappa, He Ab: mutation in the GpH7-B3 H chain only) heavy 1: not shown heavy 2: not shown light: DIVMTQSPLSLPVTPGEPASISCQASESLVHSNRNTYLHWYLQKPGQSPQLLIYKVSNRFSGVPDRFSGSGSGTDFTLKISRVEAEDVGVYYCSQNTHVPPTFGQGTKVEIERTVAAPSVFIFPPSDEQLKSGTASVVCLLNNFYPREAKVQWKVDNALQSGNSQESVTEQDSKDSTYSLSSTLTLSKADYEKHKVYACEVTHQGLSSPVTKSFNRGEC
 |  |  | 140 % of control | GpH7-B3 variant G236_10E/GpL16-k0 (antibody, human IgG1, kappa, homodimerized; also called Ho Ab) heavy: not shown light: DIVMTQSPLSLPVTPGEPASISCQASESLVHSNRNTYLHWYLQKPGQSPQLLIYKVSNRFSGVPDRFSGSGSGTDFTLKISRVEAEDVGVYYCSQNTHVPPTFGQGTKVEIERTVAAPSVFIFPPSDEQLKSGTASVVCLLNNFYPREAKVQWKVDNALQSGNSQESVTEQDSKDSTYSLSSTLTLSKADYEKHKVYACEVTHQGLSSPVTKSFNRGEC
1.22 ratio | 83.5 relative, control = 100 | 102 relative, control = 100 |  | GpH7-A5/GpH7-B3 variant S324_16H/GpL16-k0 (antibody, human IgG1, kappa, He Ab: mutation in the GpH7-B3 H chain only) heavy 1: not shown heavy 2: not shown light: DIVMTQSPLSLPVTPGEPASISCQASESLVHSNRNTYLHWYLQKPGQSPQLLIYKVSNRFSGVPDRFSGSGSGTDFTLKISRVEAEDVGVYYCSQNTHVPPTFGQGTKVEIERTVAAPSVFIFPPSDEQLKSGTASVVCLLNNFYPREAKVQWKVDNALQSGNSQESVTEQDSKDSTYSLSSTLTLSKADYEKHKVYACEVTHQGLSSPVTKSFNRGEC
1.34 ratio | 68.6 relative, control = 100 | 92.2 relative, control = 100 |  | GpH7-A5/GpH7-B3 variant S324_11K/GpL16-k0 (antibody, human IgG1, kappa, He Ab: mutation in the GpH7-B3 H chain only) heavy 1: not shown heavy 2: not shown light: DIVMTQSPLSLPVTPGEPASISCQASESLVHSNRNTYLHWYLQKPGQSPQLLIYKVSNRFSGVPDRFSGSGSGTDFTLKISRVEAEDVGVYYCSQNTHVPPTFGQGTKVEIERTVAAPSVFIFPPSDEQLKSGTASVVCLLNNFYPREAKVQWKVDNALQSGNSQESVTEQDSKDSTYSLSSTLTLSKADYEKHKVYACEVTHQGLSSPVTKSFNRGEC
